# Assay results: publication PMC10397247
# Read-outs that look alike come from different tables or passages of the source.
# B1: 4H2466-AA (peptide)
# chain: DKIAALEAKNAALEAKIAALEAEIAALKG
# B2: 4H2732-AA (peptide)
# chain: DKIAALKAENAALEAKIAALKAENAALKG
# Legend:
# Assay in all cases: two-hybrid library CCmax;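 note: natural log of median RNA to DNA barcode read ratio; higher means stronger binding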
# 4H678-AA = biological target: T1, 4H678-AA; conditions: mean of both orientations
# T1 chain: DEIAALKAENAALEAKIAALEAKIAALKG
# 4H3655-AA = biological target: T2, 4H3655-AA; conditions: mean of both orientations
# T2 chain: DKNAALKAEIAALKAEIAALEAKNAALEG
# 4H249-AA = biological target: T3, 4H249-AA; conditions: mean of both orientations
# T3 chain: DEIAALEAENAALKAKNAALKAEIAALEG
# 4H906-AA = biological target: T4, 4H906-AA; conditions: mean of both orientations
# T4 chain: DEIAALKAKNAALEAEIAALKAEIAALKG
# 4H_APH = biological target: T5, 4H_APH
# T5 chain: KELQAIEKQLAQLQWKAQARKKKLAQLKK
# 4H2754-AA = biological target: T6, 4H2754-AA
# T6 chain: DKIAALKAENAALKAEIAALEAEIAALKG
# 4H605-AA = biological target: T7, 4H605-AA; conditions: mean of both orientations
# T7 chain: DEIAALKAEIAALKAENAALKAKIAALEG
# 4H317-AA = biological target: T8, 4H317-AA; conditions: mean of both orientations
# T8 chain: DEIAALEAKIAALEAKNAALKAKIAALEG
# 4H3001-AA = biological target: T9, 4H3001-AA; conditions: mean of both orientations
# T9 chain: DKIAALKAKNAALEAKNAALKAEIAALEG
# 4H2466-AA = biological target: T10, 4H2466-AA
# T10 chain: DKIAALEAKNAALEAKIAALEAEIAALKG
# 4H2774-AA = biological target: T11, 4H2774-AA; conditions: mean of both orientations
# T11 chain: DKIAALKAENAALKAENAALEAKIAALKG
# 4H_BCR = biological target: T12, 4H_BCR; conditions: mean of both orientations
# T12 chain: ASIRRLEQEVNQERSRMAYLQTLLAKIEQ
# 4H3073-AA = biological target: T13, 4H3073-AA; conditions: mean of both orientations
# T13 chain: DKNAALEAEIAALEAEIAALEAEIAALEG
# 4H2729-AA = biological target: T14, 4H2729-AA; conditions: mean of both orientations
# T14 chain: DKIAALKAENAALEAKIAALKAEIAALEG
# 4H452-AA = biological target: T15, 4H452-AA; conditions: mean of both orientations
# T15 chain: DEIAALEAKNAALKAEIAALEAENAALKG
# 4H3343-AA = biological target: T16, 4H3343-AA; conditions: mean of both orientations
# T16 chain: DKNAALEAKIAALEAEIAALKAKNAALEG
# 4H2617-AA = biological target: T17, 4H2617-AA; conditions: mean of both orientations
# T17 chain: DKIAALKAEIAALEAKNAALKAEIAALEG
# 4H993-AA = biological target: T18, 4H993-AA; conditions: mean of both orientations
# T18 chain: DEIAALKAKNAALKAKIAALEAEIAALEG
# 4H429-AA = biological target: T19, 4H429-AA; conditions: mean of both orientations
# T19 chain: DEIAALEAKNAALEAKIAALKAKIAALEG
# 4H2883-AA = biological target: T20, 4H2883-AA; conditions: mean of both orientations
# T20 chain: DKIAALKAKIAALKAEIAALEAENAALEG
# 4H794-AA = biological target: T21, 4H794-AA; conditions: mean of both orientations
# T21 chain: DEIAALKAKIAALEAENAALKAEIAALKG
# 4H3606-AA = biological target: T22, 4H3606-AA; conditions: mean of both orientations
# T22 chain: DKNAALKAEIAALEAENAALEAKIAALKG
# 4H717-AA = biological target: T23, 4H717-AA; conditions: mean of both orientations
# T23 chain: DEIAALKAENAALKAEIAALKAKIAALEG
# 4H3015-AA = biological target: T24, 4H3015-AA; conditions: mean of both orientations
# T24 chain: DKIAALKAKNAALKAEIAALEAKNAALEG
# 4H3438-AA = biological target: T25, 4H3438-AA; conditions: mean of both orientations
# T25 chain: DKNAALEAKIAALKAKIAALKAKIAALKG
# 4H2837-AA = biological target: T26, 4H2837-AA; conditions: mean of both orientations
# T26 chain: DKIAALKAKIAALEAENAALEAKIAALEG
# 4H881-AA = biological target: T27, 4H881-AA; conditions: mean of both orientations
# T27 chain: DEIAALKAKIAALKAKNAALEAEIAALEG
# 4H3627-AA = biological target: T28, 4H3627-AA
# T28 chain: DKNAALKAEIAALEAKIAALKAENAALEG
# 4H_GCN4 = biological target: 4H_GCN4
# Chain of 4H_GCN4 (chain, as listed by the source): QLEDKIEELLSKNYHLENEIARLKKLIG
# 4H2732-AA = biological target: T29, 4H2732-AA
# T29 chain: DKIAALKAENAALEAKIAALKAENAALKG
# 4H780-AA = biological target: T30, 4H780-AA; conditions: mean of both orientations
# T30 chain: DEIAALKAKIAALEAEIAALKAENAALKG
# 4H406-AA = biological target: T31, 4H406-AA; conditions: mean of both orientations
# T31 chain: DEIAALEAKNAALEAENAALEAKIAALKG
# 4H566-AA = biological target: T32, 4H566-AA; conditions: mean of both orientations
# T32 chain: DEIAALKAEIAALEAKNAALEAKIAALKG
# 4H3112-AA = biological target: T33, 4H3112-AA; conditions: mean of both orientations
# T33 chain: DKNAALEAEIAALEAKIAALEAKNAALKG
# 4H2642-AA = biological target: T34, 4H2642-AA; conditions: mean of both orientations
# T34 chain: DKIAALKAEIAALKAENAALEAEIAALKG
# 4H342-AA = biological target: T35, 4H342-AA; conditions: mean of both orientations
# T35 chain: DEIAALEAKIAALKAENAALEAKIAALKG
# 4H2575-AA = biological target: T36, 4H2575-AA; conditions: mean of both orientations
# T36 chain: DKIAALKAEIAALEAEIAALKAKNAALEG
# 4H347-AA = biological target: T37, 4H347-AA; conditions: mean of both orientations
# T37 chain: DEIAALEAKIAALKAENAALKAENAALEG
# 4H3427-AA = biological target: T38, 4H3427-AA; conditions: mean of both orientations
# T38 chain: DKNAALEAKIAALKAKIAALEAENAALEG
# 4H335-AA = biological target: T39, 4H335-AA; conditions: mean of both orientations
# T39 chain: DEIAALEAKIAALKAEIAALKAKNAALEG
# 4H454-AA = biological target: T40, 4H454-AA; conditions: mean of both orientations
# T40 chain: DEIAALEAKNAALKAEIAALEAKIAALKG
# 4H3921-AA = biological target: T41, 4H3921-AA
# T41 chain: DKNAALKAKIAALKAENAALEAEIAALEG
# 4H2505-AA = biological target: T42, 4H2505-AA; conditions: mean of both orientations
# T42 chain: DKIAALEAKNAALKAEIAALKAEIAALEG
# 4H48-AA = biological target: T43, 4H48-AA; conditions: mean of both orientations
# T43 chain: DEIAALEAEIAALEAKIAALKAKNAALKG
# GCN2_T = biological target: GCN2_T
# 4H3844-AA = biological target: T44, 4H3844-AA; conditions: mean of both orientations
# T44 chain: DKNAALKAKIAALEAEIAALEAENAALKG
# 4H56-AA = biological target: T45, 4H56-AA
# T45 chain: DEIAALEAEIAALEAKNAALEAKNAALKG
# 4H2949-AA = biological target: T46, 4H2949-AA; conditions: mean of both orientations
# T46 chain: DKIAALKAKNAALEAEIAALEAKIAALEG
# 4H2944-AA = biological target: T47, 4H2944-AA; conditions: mean of both orientations
# T47 chain: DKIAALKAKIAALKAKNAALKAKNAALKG
# 4H2592-AA = biological target: T48, 4H2592-AA; conditions: mean of both orientations
# T48 chain: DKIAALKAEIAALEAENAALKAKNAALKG
# 4H2931-AA = biological target: T49, 4H2931-AA; conditions: mean of both orientations
# T49 chain: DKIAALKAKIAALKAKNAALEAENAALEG
binder,measurement,setting,value
B1,interaction score,4H678-AA,-0.158
same,interaction score,4H3655-AA,-1.35
same,interaction score,4H249-AA,-1.42
same,interaction score,4H906-AA,-1.22
same,interaction score,4H_APH,-0.895
same,interaction score,4H2754-AA,-0.538
same,interaction score,4H605-AA,-1.38
same,interaction score,4H317-AA,-1.82
same,interaction score,4H3001-AA,-1.55
same,interaction score,4H2466-AA,1.31
same,interaction score,4H2774-AA,-1.69
same,interaction score,4H_BCR,-2.46
same,interaction score,4H3073-AA,-1.43
same,interaction score,4H2729-AA,0.493
same,interaction score,4H452-AA,-1.37
same,interaction score,4H3343-AA,-1.23
same,interaction score,4H2617-AA,-1.65
same,interaction score,4H993-AA,0.55
same,interaction score,4H429-AA,-0.101
same,interaction score,4H2883-AA,-1.56
same,interaction score,4H794-AA,-1.43
same,interaction score,4H3606-AA,-1.47
same,interaction score,4H717-AA,-1.06
same,interaction score,4H3015-AA,-1.65
same,interaction score,4H3438-AA,-0.928
same,interaction score,4H2837-AA,-1.28
same,interaction score,4H881-AA,-2.04
same,interaction score,4H3627-AA,-1.86
same,interaction score,4H_GCN4,-1.67
same,interaction score,4H2732-AA; mean of both orientations,-1.42
same,interaction score,4H780-AA,-1.2
same,interaction score,4H406-AA,-1.25
same,interaction score,4H566-AA,-1.51
same,interaction score,4H3112-AA,-1.92
same,interaction score,4H2642-AA,-0.362
same,interaction score,4H342-AA,-0.478
same,interaction score,4H2575-AA,-1.2
same,interaction score,4H347-AA,-2.11
same,interaction score,4H3427-AA,-1.39
same,interaction score,4H335-AA,-1.59
same,interaction score,4H454-AA,0.993
same,interaction score,4H3921-AA,-1.23
same,interaction score,4H2505-AA,-0.434
same,interaction score,4H48-AA,-1.11
same,interaction score,GCN2_T; mean of both orientations,-1
same,interaction score,4H3844-AA,-1.82
same,interaction score,4H56-AA,-2.04
same,interaction score,4H2949-AA,-0.713
same,interaction score,4H2944-AA,-1.57
same,interaction score,4H2592-AA,-1.71
same,interaction score,4H2931-AA,-1.81
B2,interaction score,4H_APH; mean of both orientations,-1.5
same,interaction score,4H3001-AA,-1.46
same,interaction score,4H2774-AA,-1.29
same,interaction score,4H_BCR,-2.17
same,interaction score,4H3073-AA,0.0758
same,interaction score,4H452-AA,2.3
same,interaction score,4H3015-AA,1.14
same,interaction score,4H3438-AA,-1.2
same,interaction score,4H_GCN4; mean of both orientations,-1.08
same,interaction score,4H2732-AA,0.324
same,interaction score,4H406-AA,-1.22
same,interaction score,4H347-AA,-1.49
same,interaction score,GCN2_T,-1.15
same,interaction score,4H56-AA; mean of both orientations,-1.58
same,interaction score,4H2931-AA,-1.81
